The text below walks through data of publication PMC12990809.

Common to all, as to assay: pulldown
One data set deals with T1, TRNAU1AP (Homo sapiens) (UniProt Q9NX07).
T1 sequence: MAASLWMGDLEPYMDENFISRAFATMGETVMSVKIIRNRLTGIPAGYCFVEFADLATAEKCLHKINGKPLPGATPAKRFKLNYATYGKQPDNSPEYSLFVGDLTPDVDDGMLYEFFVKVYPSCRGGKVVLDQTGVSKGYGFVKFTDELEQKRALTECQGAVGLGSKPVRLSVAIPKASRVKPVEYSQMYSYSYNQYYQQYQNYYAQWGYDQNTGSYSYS
Particulars: 20 nM protein, 1.5 uM RNA pool; 20 mM HEPES pH 7.8, 70 mM KCl, 10 mM NaCl, 10% glycerol, 2 mM DTT, 0.1 ug/uL BSA; 30 min, 4 C.

For data set [1], the target named is T2, sart3 (Tetraodon nigroviridis) (UniProt H3DEK9).
T2 sequence: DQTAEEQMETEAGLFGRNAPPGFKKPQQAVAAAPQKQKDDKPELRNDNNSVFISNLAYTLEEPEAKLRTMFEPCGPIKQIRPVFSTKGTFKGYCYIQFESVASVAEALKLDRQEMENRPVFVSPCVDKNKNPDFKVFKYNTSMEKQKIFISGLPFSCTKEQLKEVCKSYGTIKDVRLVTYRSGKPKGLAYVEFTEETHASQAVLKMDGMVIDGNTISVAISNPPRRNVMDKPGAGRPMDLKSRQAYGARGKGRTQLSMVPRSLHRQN
Particulars: 20 nM protein, 1.5 uM RNA pool; 20 mM HEPES pH 7.8, 70 mM KCl, 10 mM NaCl, 10% glycerol, 2 mM DTT, 0.1 ug/uL BSA; 30 min, 4 C.

Data set [2] addresses T3, PK21582.1 S73F;V173L (Cannabis sativa) (UniProt A0A7J6HF55).
T3 sequence: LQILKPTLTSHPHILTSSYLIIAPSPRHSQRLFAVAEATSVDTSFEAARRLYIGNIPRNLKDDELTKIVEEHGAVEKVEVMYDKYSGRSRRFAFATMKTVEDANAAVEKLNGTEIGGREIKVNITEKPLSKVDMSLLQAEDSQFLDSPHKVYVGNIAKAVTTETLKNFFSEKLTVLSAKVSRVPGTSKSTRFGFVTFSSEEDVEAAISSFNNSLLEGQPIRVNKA
The conditions noted are these: 20 nM protein, 1.5 uM RNA pool; 20 mM HEPES pH 7.8, 70 mM KCl, 10 mM NaCl, 10% glycerol, 2 mM DTT, 0.1 ug/uL BSA; 30 min, 4 C.

Data set [3] addresses T4, PK00353.1 del132-144;P293S (Cannabis sativa) (UniProt A0A7J6GFS8).
T4 sequence: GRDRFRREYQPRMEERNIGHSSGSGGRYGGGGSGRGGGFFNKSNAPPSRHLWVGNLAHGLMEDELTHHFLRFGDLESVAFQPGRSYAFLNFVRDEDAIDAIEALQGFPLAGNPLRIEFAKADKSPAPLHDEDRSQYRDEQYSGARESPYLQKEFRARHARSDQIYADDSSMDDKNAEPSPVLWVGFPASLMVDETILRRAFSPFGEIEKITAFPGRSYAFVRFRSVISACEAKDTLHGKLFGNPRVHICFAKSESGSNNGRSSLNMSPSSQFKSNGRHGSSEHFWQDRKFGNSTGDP
The conditions noted are these: 20 nM protein, 1.5 uM RNA pool; 20 mM HEPES pH 7.8, 70 mM KCl, 10 mM NaCl, 10% glycerol, 2 mM DTT, 0.1 ug/uL BSA; 30 min, 4 C.

The next data set addresses T5, LIN28A (Homo sapiens) (UniProt Q9H9Z2).
T5 sequence: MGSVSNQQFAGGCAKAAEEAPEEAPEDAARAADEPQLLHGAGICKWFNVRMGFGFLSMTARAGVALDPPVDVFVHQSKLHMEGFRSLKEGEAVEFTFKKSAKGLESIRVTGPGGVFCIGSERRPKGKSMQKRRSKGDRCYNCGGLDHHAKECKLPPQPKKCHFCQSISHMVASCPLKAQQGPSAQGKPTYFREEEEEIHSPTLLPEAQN
Particulars: 20 nM protein, 1.5 uM RNA pool; 20 mM HEPES pH 7.8, 70 mM KCl, 10 mM NaCl, 10% glycerol, 2 mM DTT, 0.1 ug/uL BSA; 30 min, 4 C (protocol of this paper; not …); cited from earlier work.

For data set [4], the target named is T6, CG4806 (Drosophila melanogaster) (UniProt Q3ZAN6).
T6 sequence: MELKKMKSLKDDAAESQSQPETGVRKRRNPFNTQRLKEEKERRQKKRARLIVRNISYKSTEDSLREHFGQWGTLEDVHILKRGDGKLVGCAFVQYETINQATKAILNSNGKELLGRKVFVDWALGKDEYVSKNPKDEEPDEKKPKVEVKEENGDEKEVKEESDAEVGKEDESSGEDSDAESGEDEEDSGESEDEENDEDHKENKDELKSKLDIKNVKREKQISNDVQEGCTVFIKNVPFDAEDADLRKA
Particulars: 20 nM protein, 1.5 uM RNA pool; 20 mM HEPES pH 7.8, 70 mM KCl, 10 mM NaCl, 10% glycerol, 2 mM DTT, 0.1 ug/uL BSA; 30 min, 4 C.

The target in another data set is T7, RBM45 (Homo sapiens) (UniProt Q8IUH3).
T7 sequence: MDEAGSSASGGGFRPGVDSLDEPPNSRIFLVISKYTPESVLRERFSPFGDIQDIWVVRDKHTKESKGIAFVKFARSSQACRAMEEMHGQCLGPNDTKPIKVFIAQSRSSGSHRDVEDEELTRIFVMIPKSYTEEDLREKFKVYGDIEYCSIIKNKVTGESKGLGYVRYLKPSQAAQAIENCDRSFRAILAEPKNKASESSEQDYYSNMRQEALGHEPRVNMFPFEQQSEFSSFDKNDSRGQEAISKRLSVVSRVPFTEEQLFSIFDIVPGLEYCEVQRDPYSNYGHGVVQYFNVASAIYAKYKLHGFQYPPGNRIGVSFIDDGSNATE
The conditions noted are these: 20 nM protein, 1.5 uM RNA pool; 20 mM HEPES pH 7.8, 70 mM KCl, 10 mM NaCl, 10% glycerol, 2 mM DTT, 0.1 ug/uL BSA; 30 min, 4 C.

Data set [5] addresses T8, tdp-1 (Caenorhabditis elegans) (UniProt D0VWM8).
T8 sequence: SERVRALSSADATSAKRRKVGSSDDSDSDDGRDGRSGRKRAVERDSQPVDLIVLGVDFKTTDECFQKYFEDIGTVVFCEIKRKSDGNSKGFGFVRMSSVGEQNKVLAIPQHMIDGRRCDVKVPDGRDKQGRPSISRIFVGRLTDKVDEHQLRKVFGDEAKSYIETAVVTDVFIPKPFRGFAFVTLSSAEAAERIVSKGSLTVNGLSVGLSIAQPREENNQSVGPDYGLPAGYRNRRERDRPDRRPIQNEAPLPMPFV
Particulars: 20 nM protein, 1.5 uM RNA pool; 20 mM HEPES pH 7.8, 70 mM KCl, 10 mM NaCl, 10% glycerol, 2 mM DTT, 0.1 ug/uL BSA; 30 min, 4 C.

Data set [6] addresses T9, PFI0820c (Plasmodium falciparum) (UniProt Q8I2Y5).
T9 sequence: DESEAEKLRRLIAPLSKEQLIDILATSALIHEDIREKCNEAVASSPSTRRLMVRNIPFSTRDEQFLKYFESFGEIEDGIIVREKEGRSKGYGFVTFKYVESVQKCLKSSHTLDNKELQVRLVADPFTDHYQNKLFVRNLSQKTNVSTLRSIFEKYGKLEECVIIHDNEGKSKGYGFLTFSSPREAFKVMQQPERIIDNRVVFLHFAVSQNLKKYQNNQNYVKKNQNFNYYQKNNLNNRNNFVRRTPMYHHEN
Particulars: 20 nM protein, 1.5 uM RNA pool; 20 mM HEPES pH 7.8, 70 mM KCl, 10 mM NaCl, 10% glycerol, 2 mM DTT, 0.1 ug/uL BSA; 30 min, 4 C.

In the data set with TRNAU1AP (Homo sapiens), AAUUU [RNAcompete motif RNCMPT00813] registered a binding signal (z-score (mean of top ten 7-mers)) of 7.72. In data set [1], AGAGAAG [RNAcompete motif RNCMPT00774] showed a binding signal (z-score (mean of top ten 7-mers)) of 11.5. Turning to ANUGGAA [RNAcompete motif RNCMPT00792], the binding signal (z-score (mean of top ten 7-mers)) in [2] was 10.3. CAAAGCA [RNAcompete motif RNCMPT00789] returned a binding signal (z-score (mean of top ten 7-mers)) in data set [3] of 7.23. As to CGGAGG [RNAcompete motif RNCMPT00162], in the data set with LIN28A (Homo sapiens), the binding signal (z-score (mean of top ten 7-mers)) is 6.24. Substance CUGUAGUA [RNAcompete motif RNCMPT00784] came in with a binding signal (z-score (mean of top ten 7-mers)) in data set [4] of 7.2. As to GACAGA [RNAcompete motif RNCMPT00805], the binding signal (z-score (mean of top ten 7-mers)) in the data set with RBM45 (Homo sapiens) is 12.2. For the substance GAGAGA [RNAcompete motif RNCMPT00816], in data set [5], the binding signal (z-score (mean of top ten 7-mers)) amounted to 11.6. In data set [6], GAGAGAA [RNAcompete motif RNCMPT00793] came in with a binding signal (z-score (mean of top ten 7-mers)) of 6.18.
